Biological target: Sulfolobus solfataricus RNA polymerase (S. solfataricus)

transcription elongation assay on a synthetic scaffold: excess of TFS1 over TFS4 needed for 50% relief of the inhibition by TFS4 (fold excess of TFS1 over TFS4): 2
Substance: Sulfolobus solfataricus TFS4 (from UniProt Q97X43 1-92) (natural protein)

From PMC5715097
